Assay results: the supplement of paper PMC9428881
± gives the standard error.

Assay: background-corrected fluorescence of 3'-dye-labeled ssDNA relative to brightest sequence (3'-GCGCG) (fraction); higher = brighter dye fluorescence (less quenching)
Conditions: dye: Cy3 (3' terminal)
Outline: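 Each of 1024 permuted pentamers was synthesized as single-stranded DNA on glass slides by light-directed phosphoramidite chemistry, with a 3' Cy3 or Cy5 dye alongside. Arrays were scanned at 532 or 635 nm before and after overnight deprotection with ethylenediamine/ethanol. Values average 10 features per array across at least 3 syntheses. The fluorescence readout, with unlabeled-oligo background removed, is given relative to the brightest sequence.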

Point of comparison: “TTTTTTGATGATGATGATGATTTTTTTTTTTTTTTCCCCC”, background-corrected fluorescence 0.369 ± 0.018. Against it:
- TTTTTTGATGATCATGATGATTTTTTTTTTTTTTTCCGCC — higher, 0.445 ± 0.024
- TTTTTTGATGATCATGATGCTTTTTTTTTTTTTTTCCGCA [ACGCC] — higher, 0.539 ± 0.034
- TTTTTTGATGATCATGCGCATTTTTTTTTTTTTTTCCGAT [TAGCC] — higher, 0.603 ± 0.04
- TTTTTTGATGATCATGCTCATTTTTTTTTTTTTTTCCGAG [GAGCC] — higher, 0.593 ± 0.015
- TTTTTTGATGATCATGCTGATTTTTTTTTTTTTTTCCGAC [CAGCC] — higher, 0.464 ± 0.024
- TTTTTTGATGATCATGCTGCTTTTTTTTTTTTTTTCCGAA [AAGCC] — higher, 0.647 ± 0.047
- TTTTTTGATGATGAGCAGCATTTTTTTTTTTTTTTCCCTT — higher, 0.452 ± 0.011
- TTTTTTGATGATGAGCATCATTTTTTTTTTTTTTTCCCTG [GTCCC] — higher, 0.528 ± 0.048
- TTTTTTGATGATGAGCATGATTTTTTTTTTTTTTTCCCTC [CTCCC] — within error, 0.346 ± 0.012
- TTTTTTGATGATGAGCATGCTTTTTTTTTTTTTTTCCCTA [ATCCC] — higher, 0.458 ± 0.025
- TTTTTTGATGATGATCAGCATTTTTTTTTTTTTTTCCCGT [TGCCC] — higher, 0.585 ± 0.034
- TTTTTTGATGATGATCATCATTTTTTTTTTTTTTTCCCGG [GGCCC] — higher, 0.625 ± 0.027
- TTTTTTGATGATGATCATGATTTTTTTTTTTTTTTCCCGC [CGCCC] — higher, 0.51 ± 0.013
- TTTTTTGATGATGATCATGCTTTTTTTTTTTTTTTCCCGA [AGCCC] — higher, 0.629 ± 0.051
- TTTTTTGATGATGATGAGCATTTTTTTTTTTTTTTCCCCT — higher, 0.438 ± 0.024
- TTTTTTGATGATGATGATCATTTTTTTTTTTTTTTCCCCG [GCCCC] — higher, 0.471 ± 0.035
- TTTTTTGATGATGATGATGCTTTTTTTTTTTTTTTCCCCA [ACCCC] — higher, 0.423 ± 0.023
- TTTTTTGATGATGATGCGCATTTTTTTTTTTTTTTCCCAT [TACCC] — higher, 0.49 ± 0.03
- TTTTTTGATGATGATGCTCATTTTTTTTTTTTTTTCCCAG [GACCC] — higher, 0.504 ± 0.0073
- TTTTTTGATGATGATGCTGATTTTTTTTTTTTTTTCCCAC [CACCC] — within error, 0.373 ± 0.022
- TTTTTTGATGATGATGCTGCTTTTTTTTTTTTTTTCCCAA [AACCC] — higher, 0.485 ± 0.031
- TTTTTTGATGATGCGCAGCATTTTTTTTTTTTTTTCCATT [TTACC] — higher, 0.541 ± 0.041
- TTTTTTGATGATGCGCATCATTTTTTTTTTTTTTTCCATG [GTACC] — higher, 0.542 ± 0.026
- TTTTTTGATGATGCGCATGATTTTTTTTTTTTTTTCCATC [CTACC] — within error, 0.387 ± 0.081
- TTTTTTGATGATGCGCATGCTTTTTTTTTTTTTTTCCATA [ATACC] — higher, 0.488 ± 0.015
- TTTTTTGATGATGCTCAGCATTTTTTTTTTTTTTTCCAGT [TGACC] — higher, 0.615 ± 0.023
- TTTTTTGATGATGCTCATCATTTTTTTTTTTTTTTCCAGG [GGACC] — higher, 0.642 ± 0.016
- TTTTTTGATGATGCTCATGATTTTTTTTTTTTTTTCCAGC [CGACC] — higher, 0.503 ± 0.036
- TTTTTTGATGATGCTCATGCTTTTTTTTTTTTTTTCCAGA [AGACC] — higher, 0.635 ± 0.027
- TTTTTTGATGATGCTGAGCATTTTTTTTTTTTTTTCCACT [TCACC] — higher, 0.444 ± 0.029
- TTTTTTGATGATGCTGATCATTTTTTTTTTTTTTTCCACG [GCACC] — higher, 0.513 ± 0.025
- TTTTTTGATGATGCTGATGATTTTTTTTTTTTTTTCCACC — within error, 0.378 ± 0.0043
- TTTTTTGATGATGCTGATGCTTTTTTTTTTTTTTTCCACA [ACACC] — higher, 0.472 ± 0.027
- TTTTTTGATGATGCTGCGCATTTTTTTTTTTTTTTCCAAT [TAACC] — higher, 0.527 ± 0.017
- TTTTTTGATGATGCTGCTCATTTTTTTTTTTTTTTCCAAG [GAACC] — higher, 0.521 ± 0.029
- TTTTTTGATGATGCTGCTGATTTTTTTTTTTTTTTCCAAC [CAACC] — within error, 0.403 ± 0.021
- TTTTTTGATGATGCTGCTGCTTTTTTTTTTTTTTTCCAAA [AAACC] — higher, 0.559 ± 0.025
- TTTTTTGATGCGCAGCAGCATTTTTTTTTTTTTTTCATTT [TTTAC] — higher, 0.523 ± 0.022
- TTTTTTGATGCGCAGCATCATTTTTTTTTTTTTTTCATTG [GTTAC] — higher, 0.561 ± 0.029
- TTTTTTGATGCGCAGCATGATTTTTTTTTTTTTTTCATTC [CTTAC] — within error, 0.398 ± 0.017
- TTTTTTGATGCGCAGCATGCTTTTTTTTTTTTTTTCATTA [ATTAC] — higher, 0.554 ± 0.021
- TTTTTTGATGCGCATCAGCATTTTTTTTTTTTTTTCATGT [TGTAC] — higher, 0.615 ± 0.028
- TTTTTTGATGCGCATCATCATTTTTTTTTTTTTTTCATGG [GGTAC] — higher, 0.6391 ± 0.0053
- TTTTTTGATGCGCATCATGATTTTTTTTTTTTTTTCATGC [CGTAC] — higher, 0.536 ± 0.028
- TTTTTTGATGCGCATCATGCTTTTTTTTTTTTTTTCATGA [AGTAC] — higher, 0.672 ± 0.026
- TTTTTTGATGCGCATGAGCATTTTTTTTTTTTTTTCATCT [TCTAC] — higher, 0.48 ± 0.021
- TTTTTTGATGCGCATGATCATTTTTTTTTTTTTTTCATCG [GCTAC] — higher, 0.543 ± 0.018
- TTTTTTGATGCGCATGATGATTTTTTTTTTTTTTTCATCC [CCTAC] — within error, 0.38 ± 0.02
- TTTTTTGATGCGCATGATGCTTTTTTTTTTTTTTTCATCA [ACTAC] — higher, 0.483 ± 0.034
- TTTTTTGATGCGCATGCGCATTTTTTTTTTTTTTTCATAT [TATAC] — higher, 0.501 ± 0.036
- TTTTTTGATGCGCATGCTCATTTTTTTTTTTTTTTCATAG [GATAC] — higher, 0.521 ± 0.02
- TTTTTTGATGCGCATGCTGATTTTTTTTTTTTTTTCATAC — higher, 0.443 ± 0.024
- TTTTTTGATGCGCATGCTGCTTTTTTTTTTTTTTTCATAA [AATAC] — higher, 0.529 ± 0.021
- TTTTTTGATGCTCAGCAGCATTTTTTTTTTTTTTTCAGTT [TTGAC] — higher, 0.598 ± 0.018
- TTTTTTGATGCTCAGCATCATTTTTTTTTTTTTTTCAGTG [GTGAC] — higher, 0.61 ± 0.026
- TTTTTTGATGCTCAGCATGATTTTTTTTTTTTTTTCAGTC [CTGAC] — higher, 0.477 ± 0.0054
- TTTTTTGATGCTCAGCATGCTTTTTTTTTTTTTTTCAGTA [ATGAC] — higher, 0.609 ± 0.021
- TTTTTTGATGCTCATCAGCATTTTTTTTTTTTTTTCAGGT [TGGAC] — higher, 0.693 ± 0.045
- TTTTTTGATGCTCATCATCATTTTTTTTTTTTTTTCAGGG [GGGAC] — higher, 0.723 ± 0.023
- TTTTTTGATGCTCATCATGATTTTTTTTTTTTTTTCAGGC [CGGAC] — higher, 0.571 ± 0.012
- TTTTTTGATGCTCATCATGCTTTTTTTTTTTTTTTCAGGA [AGGAC] — higher, 0.705 ± 0.027
- TTTTTTGATGCTCATGAGCATTTTTTTTTTTTTTTCAGCT [TCGAC] — higher, 0.543 ± 0.022
- TTTTTTGATGCTCATGATCATTTTTTTTTTTTTTTCAGCG [GCGAC] — higher, 0.622 ± 0.036
- TTTTTTGATGCTCATGATGATTTTTTTTTTTTTTTCAGCC [CCGAC] — higher, 0.462 ± 0.011
- TTTTTTGATGCTCATGATGCTTTTTTTTTTTTTTTCAGCA [ACGAC] — higher, 0.514 ± 0.019
- TTTTTTGATGCTCATGCGCATTTTTTTTTTTTTTTCAGAT [TAGAC] — higher, 0.576 ± 0.018
- TTTTTTGATGCTCATGCTCATTTTTTTTTTTTTTTCAGAG [GAGAC] — higher, 0.595 ± 0.022
